Experiments:
[1] = target: T1, full-length human TRPML1 (transient receptor potential mucolipin 1) (human), Q9GZU1; assay: cryo-EM structure; details: remark: other sources report otherwise
T1 chain: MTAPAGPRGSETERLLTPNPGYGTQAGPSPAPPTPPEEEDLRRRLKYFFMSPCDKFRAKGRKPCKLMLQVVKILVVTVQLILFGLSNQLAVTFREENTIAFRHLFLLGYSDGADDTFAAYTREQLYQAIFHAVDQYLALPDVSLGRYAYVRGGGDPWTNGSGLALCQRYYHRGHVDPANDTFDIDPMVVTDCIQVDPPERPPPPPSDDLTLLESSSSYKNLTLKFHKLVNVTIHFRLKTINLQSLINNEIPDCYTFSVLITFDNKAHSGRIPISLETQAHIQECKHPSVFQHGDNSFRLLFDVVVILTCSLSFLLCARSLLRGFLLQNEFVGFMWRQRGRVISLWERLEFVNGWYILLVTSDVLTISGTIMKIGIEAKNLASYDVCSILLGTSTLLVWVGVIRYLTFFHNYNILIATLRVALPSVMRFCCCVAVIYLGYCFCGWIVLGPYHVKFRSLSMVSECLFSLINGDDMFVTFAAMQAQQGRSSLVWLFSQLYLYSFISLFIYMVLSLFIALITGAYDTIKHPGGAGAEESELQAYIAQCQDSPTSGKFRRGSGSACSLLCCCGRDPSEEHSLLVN

[2] = target: T1, full-length human TRPML1 (transient …); assay: cryo-EM structure; details: remark: other sources report otherwise

stoichiometry N [1]: 4 | stoichiometry N [2]: 4
B1: full-length human TRPML1 (transient receptor potential mucolipin 1), Q9GZU1 1-580 (natural protein)
chain: T1 chain
